This is an account of results in paper PMC8024369.

Where “and” joins values, the source holds several entries; their conditions need not be identical. Equal values may be shown once.

Assay [1] concerns the target rationally optimised SUWA (N22E/H86K mutant of SUWA, super WA20). The assay can be described thus: SEC-MALS; Superdex 75 Increase 10/300 GL, 20 °C, 20 mM HEPES pH 7.5, 150 mM NaCl, 5% glycerol; oligomeric number from the mass of each peak and the theoretical mass of the monomer.
Assay [2] concerns the target rationally optimised WA20 (N22A/H86K mutant of the de novo protein WA20). Described as above.

With “rationally optimised SUWA (N22E/H86K mutant of SUWA, super WA20)”, in assay [1], the mass fraction of peak (i), dimer was 64%; the mass fraction of peak (ii), tetramer was 18%; the mass fraction of peak (iii), hexamer worked out at 7%; the mass fraction of peak (iv), higher oligomers came out at 11%.

On to “rationally optimised WA20 (N22A/H86K mutant of the de novo protein WA20)”, for which, in assay [2], the mass fraction of peak (i), dimer was 77%; the mass fraction of peak (ii), tetramer came out at 21%; the mass fraction of peak (iii), hexamer turned out to be 2%; the stoichiometry N – broadly, the number of molecules, sites or subunits per partner or assembly – is 2 mer and 4 mer and 6 mer.
